*1 amine or outer side, *2 acyl side, *3 side chain or, on linkers, in order; H or OH if unused. Where no end group is shown, it is not given here. [ ]: non-standard residue; d: D form. The star is where a group is joined. 2‑CF3‑Bip = 4-(2-trifluoromethylphenyl)-L-phenylalanine, O=C([C@H](Cc1ccc(-c2ccccc2C(F)(F)F)cc1)N[*:1])[*:2]; Phe(2-NH2) = O=C([C@H](Cc1ccccc1N[*:3])N[*:1])[*:2]; Acetyl(2-(piperazin-1-yl)) = O=C(CN1CCNCC1)*; Chg = N[C@H](C(=O)O)C1CCCCC1; GABA = NCCCC(=O)O; βAla = NCCC(=O)O
Tests used:
[1] = 8 mg/Kg daily, IV, Balb/C mice, 3 mice
MIA PaCa-2 tumors = assay: Tumor xenograft with MIA PaCa-2 cells; format: in vivo, nu/nu mice
[2] = target: T1, EphA2 ligand binding domain (EphA2-LBD), recombinant (UniProt P29317 27-200, limits assumed); assay: ITC
T1 construct: also called EphA2 protein; isolated EphA2-LBD
T1 sequence (P29317 27-200 limits assumed): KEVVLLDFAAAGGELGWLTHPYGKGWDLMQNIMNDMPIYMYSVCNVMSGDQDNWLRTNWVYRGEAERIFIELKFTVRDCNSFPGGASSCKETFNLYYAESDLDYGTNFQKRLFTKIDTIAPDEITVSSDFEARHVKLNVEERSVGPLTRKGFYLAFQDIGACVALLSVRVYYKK

[3] = target: T1, EphA2 ligand binding domain …; assay: DELFIA displacement; competitor: immobilised 123B9-Biotin
[4] = dose equivalent to […] of PTX (targefrin-PTX 10 mg/Kg, targefrin-dimer-PTX 17 mg/kg), IV days 1, 4, 8, 11, 15, 18, compared to untreated and PTX groups

Molecule: CC(=O)O[C@H]1C(=O)[C@@]2(C)[C@H]([C@H](OC(=O)c3ccccc3)[C@]3(O)C[C@H](OC(=O)[C@H](O)[C@@H](NC(=O)c4ccccc4)c4ccccc4)C(C)=C1C3(C)C)[C@]1(OC(C)=O)CO[C@@H]1C[C@@H]2O [PTX, paclitaxel, reference compound]
- mice found dead after the 2nd dose [1]: 2 of 3

Molecule: CC(=O)O[C@H]1C(=O)[C@@]2(C)[C@H]([C@H](OC(=O)c3ccccc3)[C@]3(O)C[C@H](OC(=O)[C@H](OC(=O)CCCCCn4cc(CCCC(=O)NCCCC[C@H](NC(=O)CNC(=O)[C@H](CCCCNC(=O)CNC(=O)[C@@H]5CCCN5C(=O)[C@@H](CCCNC(=N)N)NC(=O)[C@@H](Cc5ccccc5)NC(=O)[C@H]5CCCN5C(=O)[C@H](NC(=O)[C@@H](C)NC(=O)[C@@H](CC(=O)O)NC(=O)[C@@H]5CCCN5C(=O)[C@H](Cc5ccc(-c6ccccc6C(F)(F)F)cc5)NC(=O)[C@H](C)NC(=O)[C@H](CC(C)C)NC(=O)[C@H](Cc5ccc(N)cc5)NC(=O)CN5CCNCC5)C5CCCCC5)NC(=O)CNC(=O)[C@@H]5CCCN5C(=O)[C@H](CCCNC(=N)N)NC(=O)[C@H](Cc5ccccc5)NC(=O)[C@@H]5CCCN5C(=O)[C@@H](NC(=O)[C@H](C)NC(=O)[C@H](CC(=O)O)NC(=O)[C@@H]5CCCN5C(=O)[C@H](Cc5ccc(-c6ccccc6C(F)(F)F)cc5)NC(=O)[C@@H](C)NC(=O)[C@@H](CC(C)C)NC(=O)[C@@H](Cc5ccc(N)cc5)NC(=O)CN5CCNCC5)C5CCCCC5)C(N)=O)nn4)[C@@H](NC(=O)c4ccccc4)c4ccccc4)C(C)=C1C3(C)C)[C@]1(OC(C)=O)CO[C@@H]1C[C@@H]2O [targefrin-dimer-PTX, [PiperazAcAcid-(2-NH2-Phe)-L-A-(2-CF3-Bip)-PD-A-Chg-PFRPG]2-KGK-(Linker)-PTX]
- antitumor effect (tumor volume) (MIA PaCa-2 tumors; [4]): significant antitumor effect
- antitumor effect (tumor volume) (MIA PaCa-2 tumors; lower dose 10 mg/kg, equivalent to 1.5 mg/kg of PTX, compared to PTX […] group): more effective than the PTX treated group

Molecule: PiperazAcAcid-(2-NH2-Phe)-L-A-(2-CF3-Bip)-PD-A-Chg-PFRPG-K-(Linker)-PTX (XLAXPDAXPFRPGK; not fully specified; non-natural residues) [targefrin-PTX]
- antitumor effect (tumor volume) (MIA PaCa-2 tumors; [4]): significant antitumor effect

B1: targefrin (agent 27) (peptide)
peptide: XLAXPDAXPFRP
modifications: N-terminal PiperazAcAcid cap; X1 = 2NH2-Phe; X4 = 2-CF3-Bip; X8 = Chg; C-terminal CONH2
notes: also called targefrin monomer; monomeric version of targefrin
- -TΔS [2]: 9.7 kcal/mol
- ΔH [2]: -20.2 kcal/mol

B2: targefrin-dimer (agent 28, n = 1, Gly-Lys linker) (peptide)
peptide: XLAXPDAXPFRPG
chain: K
modifications: branching Lys that carries one arm on each of its two amines; C-terminal CONH2; N-terminal PiperazAcAcid cap; X1 = 2-NH2-Phe; X4 = 2-CF3-Bip; X8 = Chg; the C-terminal Gly is joined to an amine of the branching Lys
- IC50 [3]: 6.5 nM

B3: dimeric targefrin agent 30 (n = 3, GABA spacer) (peptide)
peptide: {Acetyl(2-(piperazin-1-yl))}-[Phe(2-NH2)]LA[2‑CF3‑Bip]PDA[Chg]PFRP[GABA]
chain: Lys-NH2
modifications: also: branching Lys carries a second identical arm (dimer)
- IC50 [3]: 5.3 nM

B4: dimeric targefrin agent 29 (n = 2, β-Ala spacer) (peptide)
peptide: {Acetyl(2-(piperazin-1-yl))}-[Phe(2-NH2)]LA[2‑CF3‑Bip]PDA[Chg]PFRP[βAla]
chain: Lys-NH2
modifications: also: branching Lys carries a second identical arm (dimer)
- IC50 [3]: 7.6 nM

Source: patent US20260078146A1, “EPHA2 TARGETING AGENTS AND USES THEREOF” (The Regents of the University of California, priority 2022, published 2026)
